One molecule from patent publication US20250082753A1 (Hoffmann-La Roche, published 2025) can be followed below.

This assay concerns the target T1, CH2-CH3 AAA P329R CAR.
T1 construct: Expressed on transduced primary human T cells (CD4+:CD8+ 1:1); also called CH2 CH3 AAA PR CAR
Briefly: flow cytometry double staining of CH2-CH3 AAA P329R CAR T cells with 50 nM anti-PG VH3xVL1 huIgG-AF647 and 100 nM anti-AAA x FolR1 1+1 TCB Avi Biotin + BV421 streptavidin. On the procedure: In order to assess if the P329G mutation and AAA mutations can be bound by the respective molecules simultaneously, a second staining was performed as follows (FIG. 12A). The cells were incubated with LIVE/DEAD™ Fixable Near-IR Dead (Invitrogen, #L34976) dye (1:1000 in DPBS) and 50 nM of anti-PG VH3×VL1 huIgG-AF647 for 20 minutes at 4° C.
Then the cells were washed twice with FACS-buffer. In a second step the cells were incubated with 100 nM of anti-AAA×FolR1-Avi-Biotin 1+1 TCB and 500 nM Fc_P329LALA (20 minutes at 4° C.). Fc_P329GLALA served as blocking molecule, to prevent binding of the anti-PG VH3×VL1 huIgG-AF647 to the PG mutation in the anti-AAA×FolR1-Avi-Biotin 1+1 TCB. After the incubation, the cells were washed twice with FACS-buffer. In a third step the cells were resuspended in BV421 Streptavidin (Biolegend, #405225) and 500 nM Fc_P329LALA (20 min, 4° C.). After another two washing steps, the cells were fixed (BD CytoFix, #554655) and analyzed on the FACS.
A general note: Flow cytometry measures light scatter and fluorescence of single cells or particles in a stream.

T1 sequence (chain, as listed by the source P329R P329R limits assumed): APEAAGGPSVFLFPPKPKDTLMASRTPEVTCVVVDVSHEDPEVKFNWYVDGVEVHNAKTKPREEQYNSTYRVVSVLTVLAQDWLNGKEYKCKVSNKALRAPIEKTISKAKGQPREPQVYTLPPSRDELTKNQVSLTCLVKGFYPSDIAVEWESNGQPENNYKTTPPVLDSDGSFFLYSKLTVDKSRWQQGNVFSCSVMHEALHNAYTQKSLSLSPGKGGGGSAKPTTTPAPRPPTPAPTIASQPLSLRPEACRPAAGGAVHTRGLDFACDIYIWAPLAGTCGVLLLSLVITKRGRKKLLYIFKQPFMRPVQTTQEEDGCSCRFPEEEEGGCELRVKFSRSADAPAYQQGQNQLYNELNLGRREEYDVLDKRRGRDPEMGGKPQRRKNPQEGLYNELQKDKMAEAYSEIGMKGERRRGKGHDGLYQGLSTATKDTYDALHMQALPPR

B1: Anti-P329G (VH3VL1) huIgG1 (antibody, V domains shown)
VH: EVQLVESGGGLVQPGGSLRLSCAASGFTFSRYWMNWVRQAPGKGLEWVGEITPDSSTINYAPSLKGRFTISRDNAKNSLYLQMNSLRAEDTAVYYCARPYDYGAWFASWGQGTLVTVSS
VL: QAVVTQEPSLTVSPGGTVTLTCRSSTGAVTTSNYANWVQEKPDHLFTGLIGGTNKRAPGTPARFSGSLLGGKAALTLSGAQPEDEAEYYCALWYSNHWVFGGGTKLTVL
notes: huIgG1; also called P1AE9957; anti-P329G VH3×VL1 AF647 labeled IgG
As to B1, the binding result is “no binding (tested: 50 nM)”.
